Measured values reported in PMC5691136, “The role of CXCR3/LRP1 cross-talk in the invasion of primary brain tumors” (Nature Communications, 2017).

Target: CXCR3-A (human CXC chemokine receptor CXCR3, isoform A), stably expressed in U87 cells (human) (UniProt P49682)
Test: plasmon waveguide resonance (PWR); membrane fragments of U87-CXCR3-A or HEK-CXCR3-A cells captured on the polylysine-treated silica sensor; ligand added incrementally in PBS, 22 °C; shifts of the resonance minimum fitted with a hyperbolic single-site function

Chain of CXCR3-A (human CXC chemokine receptor CXCR3, isoform A), stably expressed in U87 cells (human) (P49682 whole entry, the tested form may be a part, canonical isoform): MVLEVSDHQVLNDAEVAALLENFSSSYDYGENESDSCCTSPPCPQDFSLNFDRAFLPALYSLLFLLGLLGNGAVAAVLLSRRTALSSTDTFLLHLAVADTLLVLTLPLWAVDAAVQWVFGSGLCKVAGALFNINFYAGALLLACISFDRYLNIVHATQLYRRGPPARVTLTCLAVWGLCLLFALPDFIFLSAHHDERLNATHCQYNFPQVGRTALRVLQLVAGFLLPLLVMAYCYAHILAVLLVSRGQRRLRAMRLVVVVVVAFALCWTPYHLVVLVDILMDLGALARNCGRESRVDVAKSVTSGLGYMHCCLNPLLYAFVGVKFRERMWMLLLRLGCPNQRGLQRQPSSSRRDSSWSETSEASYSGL

## PS372424 (CXCR3 agonist) (peptide)
  Kd: 0.036 µM
